Here are results for three substances from patent US20240325520A1.

By EC50 (read off the curve) is commonly meant the concentration needed to bring the measured effect to its halfway point. Higher therefore signals a less potent agent.

Assay [1] concerns the target RBD protein (K417N, N501Y, E484K).
Assay [2] concerns the target RBD protein (L452R, E484Q).
The target of assay [3] is RBD protein (L452R, E484Q). The source holds these as a separate data set.

Like-named read-outs stand apart in the source and are kept apart here.

As to “MM43 neutralizing monoclonal antibody (Beijing Sino Biological Ltd. Co., article number 40591-MM43)”, the EC50 (read off the curve) in assay [1] was found to be 0.7 µg/mL. Substance “MM57 neutralizing monoclonal antibody (Beijing Sino Biological Ltd. Co., article number 40592-MM57)” gave an EC50 (read off the curve) in assay [2] of 0.2 µg/mL. With “R001 neutralizing monoclonal antibody (Beijing Sino Biological Ltd. Co., article number 40592-R001)”, the EC50 (read off the curve) in assay [3] came to 0.2 µg/mL.
